We go through seven substances from US20060104980A1.

Assay [1] has as its target HCV 1b E2 deletion construct pDN-411 (influenza virus; Hepatitis C virus genotype 1b). The assay is described as follows: GNA capture ELISA, HEK-293 extracts. On the technique in general: ELISA stands for enzyme-linked immunosorbent assay.
Assay [2] shares this target. The assay is described as follows: flow cytometry, transiently transfected HEK-293 cells, 10 ug/ml.

Consider HMAb CBH-8C (antibody), for which, in assay [1], the OD was greater than 0.5 od.

HMAb CBH-8E (antibody) had an OD in assay [1] of 0.1 to 0.5 od.

Take HMAb CBH-4B (antibody): the OD in assay [1] was greater than 0.5 od. Also, the mean fluorescence in assay [2] turned out to be 17.

In turn, HMAb CBH-17 (antibody) showed an OD in assay [1] of 0.1 to 0.5 od.

In assay [1], HMAb CBH-7 (antibody) displayed an OD greater than 0.5 od. The substance also displayed a mean fluorescence in assay [2] of 19.

Take HMAb CBH-2 (antibody): the OD in assay [1] lay in the range of 0.1 to 0.5 od.

As to HMAb CBH-5 (antibody), the OD in assay [1] is greater than 0.5 od. In assay [2], this substance had a mean fluorescence of 17.
